According to the DeepSol protein solubility set:

Experiment: soluble on expression in E. coli; label from the status in PepcDB or PDB records

For “MSNVQEWQQLANKELSRREKTVDSLVHQTAEGIAIKPLYTEADLDNLEVTGTLPGLPPYVRGPRATMYTAQPWTIRQYAGFSTAKESNAFYRRNLAAGQKGLSVAFDLATHRGYDSDNPRVAGDVGKAGVAIDTVEDMKVLFDQIPLDKMSVSMTMNGAVLPVLAFYIVAAEEQGVTPDKLTGTIQNDILKEYLCRNTYIYPPKPSMRIIADIIAWCSGNMPRFNTISISGYHMGEAGANCVQQVAFTLADGIEYIKAAISAGLKIDDFAPRLSFFFGIGMDLFMNVAMLRAARYLWSEAVSGFGAQDPKSLALRTHCQTSGWSLTEQDPYNNVIRTTIEALAATLGGTQSLHTNAFDEALGLPTDFSARIARNTQIIIQEESELCRTVDPLAGSYYIESLTDQIVKQARAIIQQIDEAGGMAKAIEAGLPKRMIEEASAREQSLIDQGKRVIVGVNKYKLDHEDETDVLEIDNVMVRNEQIASLERIRATRDDAAVTAALNALTHAAQHNENLLAAAVNAARVRATLGEISDALEVAFDRYLVPSQCVTGVIAQSYHQSEKSASEFDAIVAQTEQFLADNGRRPRILIAKMGQDGHDRGAKVIASAYSDLGFDVDLSPMFSTPEEIARLAVENDVHVVGASSLAAGHKTLIPELVEALKKWGREDICVVAGGVIPPQDYAFLQERGVAAIYGPGTPMLDSVRDVLNLISQHHD”, which “soluble on expression in E. coli” value is on record?
The value was “soluble”.

With “ACTKNAIAQTGFNKDKYFNGDVWYVTDYLDLEPDDVPKRYCAALAAGTASGKLKEALYHYDPKTQDTFYDVSELQVESLGKYTANFKKVDKNGNVKVAVTAGNYYTFTVMYADDSSALIHTCLHKGNKDLGDLYAVLNRNKDAAAGDKVKSAVSAATLEFSKFISTKENNCAYDNDSLKSLLTK” as the sequence, how does the “soluble on expression in E. coli” value read?
Its value is “soluble”.

Which “soluble on expression in E. coli” value does the source give for “MGSDKIHHHHHHMATLTTNTPIATGSTFSAASLQFLNKLAQNNSRDWFKAHQAEYEETVRTPALQFIEQMQPSILALSPRLTAVPKKVGGSLMRPQRDSRFSKDKTPYKTNIGIQFRHFQGKDVHAPGLYLHIAEDGCFIAAGIWHPESKALNAIRTCIDENPNGYKKALQTLQNHGFTMDGDSLTRPPKGFDKNHPMLTELKRKDFIAVKNIAFEELCRPDAACFCAEQFAHCTQLMAYLCFALDLDF” here?
Its value is “not soluble”.

With “MAHHHHHHMHNGVKTFHRVGFVGSKWKEVKNRGIARFIEAFAADTATALNVTPQAVHIADYAVADDIVVDFYVTHPGTDSAEVIDGKLEQFDYQRVWDLYGIPSEVDEQQRVVPCVMKCSNASRRTSPSSTCRLRMPDTNSVSQVDSFCPRCQRRLSSKQEFLQPDESSGWHPQPMHSHTSSISDAVRTALMEDSYSAIRKPSSTPPLPHLAHRYAPHQKWKGKLRSSRARIKRVVYHSCASHR” as the sequence, how does the “soluble on expression in E. coli” value read?
The value was “not soluble”.

For “MGSDKIHHHHHHMVVNLEGKISKIGQNMKSSIIREILKFAADKDAISFGGGVPDPETFPRKELAEIAKEIIEKEYHYTLQYSTTEGDPVLKQQILKLLERMYGITGLDEDNLIFTVGSQQALDLIGKLFLDDESYCVLDDPAYLGAINAFRQYLANFVVVPLEDDGMDLNVLERKLSEFDKNGKIKQVKFIYVVSNFHNPAGVTTSLEKRKALVEIAEKYDLFIVEDDPYGALRYEGETVDPIFKIGGPERVVLLNTFSKVLAPGLRIGMVAGSKEFIRKIVQAKQSADLCSPAITHRLAARYLERYDLLEQLKPTIELYRRKRTVMLNALEEYFSDIPGVKWVKSEGGLFIWLTLPEGFDTWEMFEYAKRKKVFYVPGRVFKVYDEPSPSMRLSFCLPPDEKIVEGIKRLREVVLEYGKEKHLL”, which “soluble on expression in E. coli” value is on record?
Its value is “soluble”.

For “MGSDKIHHHHHHMENRIVKFKSKESAGLNLHAIPGHFATSHSHINYYVDVTSIKTRVSEAKEAAKALYTKVPHHSYIDTIVCMDGTEMIGAFLSQEIERNGLMSVNKHETIYVVSPEINNGQMLFRDNNKGAIDGKHVVLLLATTTTGETIRRAMECINYYGGMVTCIASIFSTIDEVNGVKIDKLFDDDDVVNYQTYPVTECPFCKKGLPIEAMVNGFGYSKL”, which “soluble on expression in E. coli” value is on record?
Its value is “not soluble”.

With “SLSFASSACFNEAGTMFRIEPNLIKAIALVESNLKKDSIGKNRDKKNNIKSFDYGLMQINQMHIPMLKKRGIIKDERDLLDNPCLNIKIGTEILYKHFSRCGMTWQCLGTYNAGFAMDNQKKRLQYAKKIYIVYTRLNELDNRKALA” as the sequence, how does the “soluble on expression in E. coli” value read?
Its value is “not soluble”.

For “MGHHHHHHSHMVITIYYDVKVRFIVRGCGQYISYRCQEKRNTYFAEYWYQAQCCQYDYCNSWSSPQLQSSLPEPHDRPLALPLSDSQIQWFYQALNLSLPLPNFHAGTEPDGLDPMVTLSLNLGLSFAELRRMYLFLNSSGLLVLPQAGLLTPHPS”, which “soluble on expression in E. coli” value is on record?
The value was “not soluble”.

For “MGSDKIHHHHHHMPFAKEKGQPAIYYETIGKGTPIIFIPPPGVGHLTFRYQVPLMNQCKLITFDVRGDCQSERSTEPMTMTQLAYDVKRVLDANCVRKAIVCGYSNGAAIAQEFALTYPERTAGVILIGGYFAVKNFLLEKEYKLGIWAARNELMPLLASGLAKNHFTDKQAANELYAEIMKTDPQMLADQYTTGLHYSSEDRLHQLRVPLLLIYGANDHYLQPYQTRFRELVHDVEIVYIQGVKHQVPSKAPHECNAVLREWMRRKQFIPS”, which “soluble on expression in E. coli” value is on record?
The value was “not soluble”.

With “MSLSTMGPLGGISVIFDLDGTLVDSEPHYYEAGRRTLAEYGVPDFSWADHEAYVGISTQETVADWKRRYGLRATVEELLAVKNRHYLGLARTSARAYPEMRKFVELLAGEGVPMAVASGSSPEAIAAILARTGLDAHLRTVVSADEVARGKPAPDVFLEAARRLGTEPARCVVLEDAAPGAAAAHAAGMRCIAIPYVSGQADAPEFATAELLVRGGQEEFTARAAHDWLRTDGNATRETEGHHHHHH” as the sequence, how does the “soluble on expression in E. coli” value read?
The value was “soluble”.

With “MDLLERLGLGGRRVLILHHDDLGLTHAQNGAYQALGLPTGSVMVPGAWASGVKGEDLGVHLVLTSEWPAPRMRPLTEGESLRDEAGYFPESLEALWRKARAEEVERELKAQIQAAAKLFSPTHLDAHQGAVLRPDLAEVYLRLAEAYRLVPLVPESLEGLGVPPPFLPELERLLYETPFPQVRFLDPYGLPPEERLGFYLDLAHLPPGLYYLVHHSALPTPEGRALPDWPTREADYFALSHPEVRRVLAEFHPLTWRAVREALF” as the sequence, how does the “soluble on expression in E. coli” value read?
Its value is “soluble”.

Which “soluble on expression in E. coli” value does the source give for “MSLSELINNREKRVQTLKEIILHLHRGEAPAAVRGRLAALIADVDASEVAAMEQELMAEGMSHQEVQSLCDLHADVLQDVMTRPATPMPLAPGHPVHQLRAENRALGAAAQTARQRVRELAALADEGRFDAERVEALRAFEVLWEVDRHYQRKEHLVFSVLERHGTTGPSKVMWGKDDEVRDLLKASLAALGEEGVSGAELKVVAETVLEPALSALEGMIYKEENILLPMTLGLFTAEDWGEIFRQSPEYGWCLVQPGTGYRPPEPRPVTDAVKLPPAQAVQFPSGTLSFEQLLGLFQALPVDLTFVDRDDRVAFFSEGPDRVFARSRAVIGREVKHCHPPKSVHVVERIVEDFKAGRQSVAEFWIDLHGRFVHIRYFAVRDAAGAYLGTLEVTQDLTRLRALEGERRLLAYDAGPAHDPITREGHHHHHH” here?
Its value is “soluble”.

For “QALQTLVEKISIVFFQKPFLHQATFNRRLKTTGGRYHLASHHLDFNPTVFLKYGQEELEKVIKHELCHYHLHLAGKGYQHKDKDFKELLAKTGGARYAPPLVERKKAVFHQYQCQSCGEVILRKRRIDTTRYVCGKCHGRLSWQ”, which “soluble on expression in E. coli” value is on record?
Its value is “not soluble”.

For “MGHHHHHHSHMEYHTMIRELILDGSLQLIQEGLKSGFLYPLFEKQDKGSKPITLPLDACSLSELCEMAKHLPSLNEMEHQTLQLVEEDTSVTEQDLFLRVVENNSSFTKVITLMGQKYLLPPKSSFLLSDISCMQPLLNYRKTFDVIVIDPPWQNKSVKRSNRYSYLSPLQIQQIPIPKLAAPNCLLVTWVTNRQKHLRFIKEELLSLLVCGGSC”, which “soluble on expression in E. coli” value is on record?
The value was “not soluble”.

With “MIPRILGALLLCLACAAQAGVYTYIDAEGNRVYTDQPPSGRKAQRVELAPGNSVAPPGIRYRPPAAPLEVKPPAYQLLRILFPEPDATLRANSGDVIVTVTSEPALLPGHRYRLLLDGKPAGVPGRSPVFPLKNLDRGTHQVAVEIIDGDGMTVESTPSQPFHLHRVSIAGQPLPEVDTPLVSAIEPSER” as the sequence, how does the “soluble on expression in E. coli” value read?
The value was “not soluble”.

With “MGSDKIHHHHHHMKSPCILLIIVCTLSLTGCASTKQADSDSSLGKAQQTLDSLYQHYSAKDSYLLRENYPFNEQYKVTYLASENQTNMPNQFSYLWPYSGTFSAVNSLLEATHDKKYQQLLEKQVLPGLEEYFDTERTPIAYSSYIRTAPTSDRFYDDNIWVGIDFIDIYQITKEKKYLDKAQLIWNFIESGTDSLLGDGIYWCEQKKESKNTCSNAPGSVFALKLFKATNDSLYFKRGKELYKWTQKNLQDSTDYLYFDNIRLDGKIGKAKFAYNSGQMMQSAALLYQLTKNPDYLKDAQSIAKECYNYFFTDFTTDTGESLKMLKQGNIWFTAVMLRGFIELYQLDQNKTFIDAFNQCLSYAWDNARDENGLFSTDLTGNNNNEKKWLLTQAAMVEMYSRLATIQ” as the sequence, how does the “soluble on expression in E. coli” value read?
The value was “not soluble”.

Which “soluble on expression in E. coli” value does the source give for “MFYTTDTNQHGLPHDPFKAIVAPRPIGWIGSKGREGVLNLSPYSFFNAISDRPKLVMFSSSGRKDSLRNVEETGVFTANLVSRHLVDRMNASSAPVAYDVDEFALAGLTAVDGRVVDAPFVREALAVLECRATQIQQLTDIEGKPTDSWMVIGQVMAIHIGETIIRDGRIDMGLARPVARMGYMDYCDGGSDVFQLQRPSAAPSV” here?
Its value is “soluble”.

Which “soluble on expression in E. coli” value does the source give for “MGSDKIHHHHHHMQSTALRYFLEVARCGSISEASVRLNVASSAVSRQISKLERELDALLFERQARGMMLSEAGIRLAAYARKSQLEAEQVVLEITELQGLQRGHVRIACSEGFALDFLPQCIARFRRLYQGIHFSMEVCAPAQATERVRSGDADLCLTFSLTPQNEIKVEHIHSGAICAVVSHNHPLASRKEVALAELQPYAIALTNTDTTLRQLFDICCGVQGLMFDPVLTSNYIGSLLRFVSEEGGISLSSEMTLDKRVHEKQLKSLPISDEGMKARRIELQSMAGRNLPAAVAAFRDFLIEELAKT” here?
Its value is “not soluble”.

With “MGSDKIHHHHHHMSVKILFKNATVFPITSRPFKGDVLVSNGKVEKVGENIEDPDAEIVDLTGKFLFPGFVDAHSHIGLFEEGVGYYYSDGNEATDPVTPHVKALDGFNPQDPAIERALAGGVTSVMIVPGSANPVGGQGSVIKFRSIIVEECIVKDPAGLKMAFGENPKRVYGERKQTPSTRMGTAGVIRDYFTKVKNYMKKKELAQKEGKEFTETDLKMEVGEMVLRKKIPARMHAHRADDILTAIRIAEEFGFNLVIEHGTEAYKISKVLAEKKIPVVVGPLLTFRTKLELKDLTMETIAKLLKDGVLIALMCDHPVIPLEFATVQAATAMRYGAKEEDLLKILTVNPAKILGLEDRIGSIEPGKDADLVVWSGHPFDMKSVVERVYIDGVEVFRR” as the sequence, how does the “soluble on expression in E. coli” value read?
The value was “not soluble”.

For “MSLEKKDTNSLKLLLIGNTGIGEYKSRAERKGLWYKLKRFLWTNEFDQTVSALAKWHAEEKADAVLGLGDFLGIPGPLSARDERFTKRWYDIFVKDAKLDIPWLMTLGEEEALVNPSASVRHHYTGEHPNWYMPNDAYTATFSFSTSMTMANGTIQHEAFNATVINVNTWNLFVGNPIANNMQSMMDRLMWLSDQLYTAVNQTTNWLIIMGHLPLVSTGPQGEQGRLQYVDDLYKNGQPRGPEAVLIQMLLSHYQVDLYVSAHDHFMEYVALEDLSKNTTTAFITSGAAVRLLDKDVGRGWIGRLRGALYPILCWSGRRILYAFHPGEGHHHHHH”, which “soluble on expression in E. coli” value is on record?
The value was “not soluble”.
